Laboratory results reported in patent publication US9611285B2, “Fucosyltransferases and their applications” (Jennewein Biotechnologie GmbH, priority 2011, dated 2017).

Assays:
[1] = system: alpha-1,2-fucosyltransferase His6-Propeptide-WbgL; test: Acceptor substrate spectrum by HPAEC-PAD activity assay; assay type: biochemical, Escherichia coli O126; conditions: acceptor substrate instead of 5 mM lactose; 2 mM GDP-β-L-fucose; relative to lactose
Protocol: (§1) Enzyme activity was also determined by HPAEC-PAD analysis for detection of 2′-fucosyllactose. The assay solution contained 2 mM GDP-β-L-fucose, 5 mM lactose, 50 mM Tris-HCl pH 7.6 with 2 mM MnCl2, 1 mM DTT, 1 U alkaline phosphatase in a total volume of 175 μl and was incubated at 30° C. after the addition of […] and purified enzyme solution. The reaction was stopped by heating for 5 min at 95° C. at different time points where the conversion rate was linear. The centrifuged samples were analysed by Dionex HPAEC-PAD (Dionex Corporation, Sunnyvale, Calif., USA) on CarboPac PA1 column using Chromeleon™ 6.40 Software. The elution was carried out with 50 mM NaOH at 30° C. (flow rate 1 mL/min, 50 μL injection volume). The concentration of the generated trisaccharide 2′-fucosyllactose was determined by a standard calibration curve with commercially available 2′-fucosyllactose and used for subsequent calculation of enzyme activity (see FIG. 6).
(§2) For both, HPAEC-PAD and photometric assays, 1 U of His6-Propeptide-WbgL is the amount of enzyme which produces 1 μmol product (GDP or 2′-fucosyllactose) per minute under standard assay conditions.
The substrate spectrum of recombinant His6-Propeptide-WbgL was analysed by HPAEC-PAD according to activity assay described above. Instead of 5 mM lactose different acceptor substrates were tested to determine the relative activity compared to lactose.

[2] = system: OC[C@H]1O[C@@H](O[C@H]2[C@H](O)[C@@H](O)C(O)O[C@@H]2CO)[C@H](O)[C@@H](O)[C@H]1O; test: Kinetic analysis by photometric pyruvate kinase/lactate dehydrogenase assay (initial rates, Michaelis-Menten); assay type: biochemical, Escherichia coli O126; conditions: other: lactose varied 0.05 to 40 mM at 2 mM GDP-beta-L-fucose, GDP-beta-L-fucose varied 0.02 to 4 mM at 10 mM lactose, 30° C., pH 7.6
Protocol: (§3) The photometric assay was performed using the pyruvate kinase/lactate dehydrogenase system for the detection of released GDP (Barratt, D. H., L. Barber, et al. (2001). “Multiple, distinct isoforms of sucrose synthase in pea.” Plant Physiology 127(2): 655-664.). The reaction mixture for the microtiter plate assay contained 50 mM Tris-HCl pH 7.6, 2 mM GDP-beta-L-fucose, 5 mM Lactose, 1 mM phosphoenolpyruvate, 1 mM DTT, 0.25 mM NADH, 2 mM MnCl2, 5 U pyruvate kinase, and 5 U lactate dehydrogenase in a total volume of 250 μl. The reaction was started by addition of 100 μl enzyme solution and followed at 340 nm at 30° C. Control experiments for the detection of side activities were done without acceptor substrate lactose (see FIG. 5).
as §2
(§4) The kinetic constants of His6-Propeptide-WbgL for the acceptor substrate lactose and the donor substrate GDP-beta-L-fucose were derived from initial rate analysis at a variable substrate concentrations using the photometric assay described above. GDP-beta-L-fucose was varied from 0.02 mM to 4 mM at a constant concentration of 10 mM lactose and lactose was altered from 0.05 to 40 mM at a constant concentration of 2 mM GDP-beta-L-fucose. All data were determined by non linear-regression analysis according to the Michaelis-Menten equation using the Sigma Plot 10 software (SPSS Science Software GmbH, Erkrath, Germany).

[3] = system: C[C@@H]1O[C@H](OP(=O)(O)OP(=O)(O)OC[C@H]2O[C@@H](n3cnc4c(=O)[nH]c(N)nc43)[C@H](O)[C@@H]2O)[C@@H](O)[C@H](O)[C@@H]1O; test: as above; assay type: biochemical, Escherichia coli O126; conditions: other: lactose varied 0.05 to 40 mM at 2 mM GDP-beta-L-fucose, GDP-beta-L-fucose varied 0.02 to 4 mM at 10 mM lactose, 30° C., pH 7.6
Protocol: as §3, §2, §4

[4] = system: E. coli BL21(DE3) ΔlacZ pDEST14-fkp pCOLA-lacY-fucP; test: Production of 2'-fucosyllactose in recombinant E. coli expressing a fucosyltransferase (HPLC); assay type: cell-based, Escherichia coli
Protocol: Cells E. coli BL21(DE3) ΔlacZ pDEST14-fkp pCOLA-lacY-fucP were transformed with pACYCDuet-1 carrying the appropriate fucosyltransferase gene. Colonies were grown on 2YT plates with the appropriate antibiotics. 5 ml over night cultures (2YT with antibiotics) were grown of each strain and from this cultures 15 ml mineral medium each were inoculated to 1%. Cells were grown using glycerol as carbon source and at OD600=0.5 were induced with 0.1 mM IPTG and 40 mM lactose and 30 mM fucose were added. Cultures were incubated at 30° C. and 120 rpm. Production of 2′-fucosyllactose was monitored HPLC analysis. The comparison of the amount of 2′-fucosyllactose (2′-FL) produced by expression of FucT2 from Helicobacter pylori compared to the expression of WbgL from Escherichia coli O126 is shown in the following table 1: […]

[5] = pH optimum and metal ion dependency of the enzyme (HPAEC-PAD assay); assay type: biochemical
Protocol: as §1
To study the optimal pH value for the activity of recombinant His6-Propeptide-WbgL, assays were performed at different pH values of a 50 mM Tris-HCl buffer ranging from pH 6.8 to 8.4. Optimal pH value was 7.6 (see. FIG. 8). Addition of metal ions Mn^2+ to standard assays allowed to investigate the metal ion dependency. All samples were analyzed HAPAEC-PAD as described above.

Molecule: O=C[C@H](O)[C@@H](O)[C@@H](O)[C@H](O)CO [D-Galactose]
- Relative activity [1]: 71%

Molecule: OC[C@H]1O[C@@H](O[C@@H]2[C@@H](CO)OC(O)(CO)[C@H]2O)[C@H](O)[C@@H](O)[C@H]1O (mixture of isomers) [Lactulose]
- Relative activity [1]: 124%

Molecule: N[C@H]1C(O)O[C@H](CO)[C@H](O)[C@@H]1O (stereo partly drawn) [D-GalNH2]
- Relative activity [1]: 0%

Molecule: CC(=O)N[C@H]1C(O)O[C@H](CO)[C@@H](O[C@@H]2O[C@H](CO)[C@H](O)[C@H](O)[C@H]2O)[C@@H]1O (stereo partly shown) [LacNAc Typ II]
- Relative activity [1]: 95%

Molecule: CC(=O)N[C@H]1C(O)O[C@H](CO)[C@H](O)[C@@H]1O (stereo partly drawn) [D-GalNAc]
- Relative activity [1]: 0%

Molecule: CC(=O)NC1C(O)OC(CO)C(OC2OC(CO)C(O)C(O)C2NC(C)=O)C1O (stereo not shown) [LacDiNAc]
- Relative activity [1]: 0%

Molecule: OC[C@H]1O[C@@H](O[C@H]2[C@H](O)[C@@H](O)C(O)O[C@@H]2CO)[C@H](O)[C@@H](O)[C@H]1O (stereo partly shown) [Lactose]
- Relative activity [1]: 100%

Molecule: OC[C@H]1O[C@@H](O[C@H]2[C@H](O)[C@@H](O)[C@H](OCc3ccccc3)O[C@@H]2CO)[C@H](O)[C@@H](O)[C@H]1O [β-Benzyl-Lactose]
- Relative activity [1]: 50%

Molecule: recombinant alpha-1,2-fucosyltransferase His6-Propeptide-WbgL (Escherichia coli)
- Km [2]: 5300 µM
- Vmax [2]: 0.17 µmol/min/mg
- Vmax/Km [2]: 32 µL/min/mg
- Km [3]: 270 µM
- Vmax [3]: 0.167 µmol/min/mg
- Vmax/Km [3]: 618 µL/min/mg

Molecule: CC(=O)N[C@@H]1[C@@H](O[C@@H]2O[C@H](CO)[C@H](O)[C@H](O)[C@H]2O)[C@H](O)[C@@H](CO)O[C@@H]1O [LacNAc Typ I]
- Relative activity [1]: 28%

B1: WbgL: alpha-1,2-fucosyltransferase WbgL from E. coli O126 (SEQ ID No. 2), expressed from pACYC-wbgL (protein, listed as Escherichia coli)
chain: MSIIRLQGGLGNQLFQFSFGYALSKINGTPLYFDISHYAENDDHGGYRLNNLQIPEEYLQYYTPKINNIYKLLVRGSRLYPDIFLFLGFCNEFHAYGYDFEYIAQKWKSKKYIGYWQSEHFFHKHILDLKEFFIPKNVSEQANLLAAKILESQSSLSIHIRRGDYIKNKTATLTHGVCSLEYYKKALNKIRDLAMIRDVFIFSDDIFWCKENIETLLSKKYNIYYSEDLSQEEDLWLMSLANHHIIANSSFSWWGAYLGSSASQIVIYPTPWYDITPKNTYIPIVNHWINVDKHSSC
- Yield 2′-FL ([4]; 0.1 mM IPTG, 40 mM lactose, 30 mM fucose, 30° C., 120 rpm): 4.05 mM
- Amount of fucosylated product 2′-fucosyllactose compared to FucT2 from Helicobacter pylori ([4]; same cultures as Table 3): significantly higher

B2: His6-Propeptide-WbgL: recombinant WbgL with N-terminal His-Tag and S. hyicus lipase propeptide (513 amino acids), expressed from pETHIS6PropwbgL in E. coli (protein)
chain: NDSTTQTTTPLEVAQTSQQETHTHQTPVTSLHTATPEHVDDSKEATPLPEKAESPKTEVTVQPSSHTQEVPALHKKTQQQPAYKDKTVPESTIASKSVESNKATENEMSPVEHHASNVEKREDRLETNETTPPSVDREFSHKIINNTHVNPKTDGQTNVNVDTKTIDTVSPKDDRIDTAQPKQVDVPKENTTAQNKFTSQASDKKPTMSIIRLQGGLGNQLFQFSFGYALSKINGTPLYFDISHYAENDDHGGYRLNNLQIPEEYLQYYTPKINNIYKLLVRGSRLYPDIFLFLGFCNEFHAYGYDFEYIAQKWKSKKYIGYWQSEHFFHKHILDLKEFFIPKNVSEQANLLAAKILESQSSLSIHIRRGDYIKNKTATLTHGVCSLEYYKKALNKIRDLAMIRDVFIFSDDIFWCKENIETLLSKKYNIYYSEDLSQEEDLWLMSLANHHIIANSSFSWWGAYLGSSASQIVIYPTPWYDITPKNTYIPIVNHWINVDKHSSC
modifications: left off: small tags and cut ends
notes: recombinant WbgL with N-terminal His-Tag and S. hyicus lipase propeptide (513 amino acids), expressed from pETHIS6PropwbgL in E. coli
- Optimal pH value ([5]; 50 mM Tris-HCl buffer, pH 6.8 to 8.4): 7.6
- Metal ion dependency (Mn^2+) ([5]; addition of Mn^2+ to standard assays): not dependent on Mn^2+ ions
